Data published in patent US20050277167A1, “Prolyl 3-hydroxylases” (priority 2004, published 2005).

How the values were obtained:
[1] = target: T1, (Pro-Pro-Gly)10 substrate (Gallus gallus, UniProt Q6JHU8); test: Prolyl 4-hydroxylase activity assay, hydroxylation-coupled decarboxylation of 2-oxo[1-14C]glutarate; format: biochemical; conditions: purified P3H1 enzyme
T1 construct: Purified P3H1 from 15-day-old chick embryos was tested for its enzymatic activity using a labeled procollagen substrate; from tissue; host or cells: 15 day-old chick embryos: rER-enriched extract, gelatin-Sepharose, then 1C10 antibody column eluted at pH 2.5
T1 sequence (Q6JHU8 15-725): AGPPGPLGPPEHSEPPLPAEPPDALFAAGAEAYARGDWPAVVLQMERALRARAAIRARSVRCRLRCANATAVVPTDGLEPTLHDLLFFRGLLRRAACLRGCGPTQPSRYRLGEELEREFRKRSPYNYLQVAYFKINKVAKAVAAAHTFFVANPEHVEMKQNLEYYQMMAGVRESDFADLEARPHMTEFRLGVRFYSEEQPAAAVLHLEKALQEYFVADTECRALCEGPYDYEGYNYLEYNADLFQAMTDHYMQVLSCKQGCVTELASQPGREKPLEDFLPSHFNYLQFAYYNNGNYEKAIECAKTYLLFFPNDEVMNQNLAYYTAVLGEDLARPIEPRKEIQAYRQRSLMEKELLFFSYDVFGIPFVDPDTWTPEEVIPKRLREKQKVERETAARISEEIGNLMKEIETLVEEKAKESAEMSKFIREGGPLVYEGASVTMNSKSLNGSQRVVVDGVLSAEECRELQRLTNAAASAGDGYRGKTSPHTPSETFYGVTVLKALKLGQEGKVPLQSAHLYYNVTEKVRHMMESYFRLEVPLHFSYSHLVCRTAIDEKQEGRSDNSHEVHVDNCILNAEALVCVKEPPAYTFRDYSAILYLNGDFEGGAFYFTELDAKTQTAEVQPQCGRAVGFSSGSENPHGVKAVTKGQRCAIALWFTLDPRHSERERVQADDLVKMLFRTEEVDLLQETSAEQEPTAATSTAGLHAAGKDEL
Description: The prolyl 4-hydroxylase activity was assayed by a method based on the hydroxylation-coupled decarboxylation of 2-oxo[1-^14C]glutarate (Kivirikko et al., 1982). The reaction was performed in a final volume of 1.0 ml, which contained 0.1 mg (Pro-Pro-Gly)10.9H^2O as substrate, 2 mM ascorbic acid, 0.05 mM FeSO^4, 0.1 mM dithiothreitol, 2 mg/ml bovine serum albumin, 0.1 mg/ml catalase, 50 mM Tris-HCl, pH 7.8, and 0.1 mM 2-oxo[1-^14C]glutarate (100,000 dpm). The reaction was stopped by the addition of 1 ml of 1 M KH2PO4, pH 5.0.

[2] = target: T2, [2,3-3H]-L-proline-labeled procollagen substrate (Gallus gallus, UniProt Q6JHU8); test: Prolyl 3-hydroxylase activity assay, release of tritiated water (THO) from labeled procollagen substrate; format: biochemical, chicken; conditions: same Km expressed per ml reaction volume
T2 construct: Purified P3H1 from 15-day-old chick embryos was tested for its enzymatic activity using a labeled procollagen substrate; from tissue; host or cells: 15 day-old chick embryos: rER-enriched extract, gelatin-Sepharose, then 1C10 antibody column eluted at pH 2.5
T2 sequence (Q6JHU8 15-725): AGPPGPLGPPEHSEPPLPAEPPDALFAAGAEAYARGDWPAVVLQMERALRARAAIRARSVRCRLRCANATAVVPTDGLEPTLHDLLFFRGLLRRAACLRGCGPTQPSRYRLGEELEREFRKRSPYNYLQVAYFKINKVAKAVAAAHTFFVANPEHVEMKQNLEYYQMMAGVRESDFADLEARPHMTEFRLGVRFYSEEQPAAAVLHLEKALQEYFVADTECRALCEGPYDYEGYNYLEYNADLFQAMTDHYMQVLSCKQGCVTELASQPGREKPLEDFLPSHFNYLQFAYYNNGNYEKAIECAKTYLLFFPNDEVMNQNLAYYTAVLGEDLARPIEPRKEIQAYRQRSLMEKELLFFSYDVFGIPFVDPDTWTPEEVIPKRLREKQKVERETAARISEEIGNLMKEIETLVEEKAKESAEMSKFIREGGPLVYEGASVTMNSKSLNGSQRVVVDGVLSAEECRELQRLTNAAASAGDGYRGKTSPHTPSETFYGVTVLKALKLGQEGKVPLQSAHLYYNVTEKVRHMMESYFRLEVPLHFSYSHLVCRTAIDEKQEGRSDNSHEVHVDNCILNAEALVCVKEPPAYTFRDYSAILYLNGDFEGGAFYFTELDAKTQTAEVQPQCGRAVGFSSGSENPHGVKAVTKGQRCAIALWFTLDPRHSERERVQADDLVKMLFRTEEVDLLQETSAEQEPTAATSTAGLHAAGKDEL
Description: Prolyl 3-hydroxylase activity was measured based on the amount of tritiated water (THO) formed from a labeled procollagen substrate (Kivirikko et al. Matrix Biol, 16, 357-368 (1998); Risteli et al. Anal Biochem, 84, 423-431 (1978)) with the following modifications. [2,3-^3H]-L-Proline, 42 Ci/mmol, was purchased from Sigma.[2,3-^3H]-proline-labeled nonhydroxylated procollagen was prepared from the isolated cells of the leg tendons from 12 dozen 15 day-old chicken embryos (Berg et al., Biochemistry, 12, 3395-3401 (1973); Dehm et al. Biochim Biophys Acta, 264, 375-382 (1972); Kivirikko et al., Methods Enzymol, 82 Pt A, 245-304 (1982)). […]
The prolyl 3-hydroxylase reactions were performed as described previously (Kivirikko et al., 1982; Risteli et al., 1978; Tryggvason et al., 1976) but with the following modifications: the enzyme reaction was carried out for 60 minutes at 24° C. in a final volume of 2.0 mls containing 1×10^6 dpm [2,3-^3H]-L-proline-labeled substrate, 0.08 mM FeSO^4, 2 mM ascorbic acid, 0.5 mM 2-oxoglutarate, 0.2 mg/ml catalase, 2 mg/ml bovine serum albumin, 0.1 mM dithiothreitol, and 0.05 M Tris-HCl, pH 7.8. […] A 1.8 ml aliquot of the tritiated water was mixed with 10 mls Ecolume liquid scintillation cocktail (ICN) and counted in a Beckman LS5000TD liquid scintillation counter. […]

B1: P3H1: prolyl 3-hydroxylase 1 purified from 15-day-old chick embryos, chicken homologue of leprecan (protein)
chain: AGPPGPLGPPEHSEPPLPAEPPDALFAAGAEAYARGDWPAVVLQMERALRARAAIRARSVRCRLRCANATAVVPTDGLEPTLHDLLFFRGLLRRAACLRGCGPTQPSRYRLGEELEREFRKRSPYNYLQVAYFKINKVAKAVAAAHTFFVANPEHVEMKQNLEYYQMMAGVRESDFADLEARPHMTEFRLGVRFYSEEQPAAAVLHLEKALQEYFVADTECRALCEGPYDYEGYNYLEYNADLFQAMTDHYMQVLSCKQGCVTELASQPGREKPLEDFLPSHFNYLQFAYYNNGNYEKAIECAKTYLLFFPNDEVMNQNLAYYTAVLGEDLARPIEPRKEIQAYRQRSLMEKELLFFSYDVFGIPFVDPDTWTPEEVIPKRLREKQKVERETAARISEEIGNLMKEIETLVEEKAKESAEMSKFIREGGPLVYEGASVTMNSKSLNGSQRVVVDGVLSAEECRELQRLTNAAASAGDGYRGKTSPHTPSETFYGVTVLKALKLGQEGKVPLQSAHLYYNVTEKVRHMMESYFRLEVPLHFSYSHLVCRTAIDEKQEGRSDNSHEVHVDNCILNAEALVCVKEPPAYTFRDYSAILYLNGDFEGGAFYFTELDAKTQTAEVQPQCGRAVGFSSGSENPHGVKAVTKGQRCAIALWFTLDPRHSERERVQADDLVKMLFRTEEVDLLQETSAEQEPTAATSTAGLHAAGKDEL
In the case of B1, the “prolyl 4-hydroxylase activity” value [1] is reported as “did not have any prolyl 4-hydroxylase activity” and the Km [2] is reported as 89.5 μl of substrate per ml.
